Legend:
[1] = target: gp120 of HTLV-IIIB (HIV-1 isolate IIIB)
[2] = target: gp120 of HIV-1 isolate AL-1 (HIV-1 isolate AL-1)
[3] = target: gp120 of HIV-1 isolate DU 7887-7 (HIV-1 isolate DU 7887-7)
[4] = target: gp120 of HIV-1 isolate RF (HIV-1 isolate RF) (UniProt P04579)
[5] = target: gp120 of HIV-1 isolate SF-2 (virus) (HIV-1 isolate SF-2) (UniProt P03378)
[6] = target: gp120 of HIV-1 isolate WMJ-2 (HIV-1 isolate WMJ-2)
[7] = target: gp120 of HIVMN (HIV-1 strain MN) (UniProt P05877)
[8] = target: gp120 of HTLV-IIIB (HIV-1 isolate IIIB); remark: listed apart in the source
[9] = target: heptapeptide GPGRAFY (pin 12) (HIV-1 strain MN); test: pin ELISA, heptapeptide on pin, mAb at 10 µg/ml
[10] = target: heptapeptide GRAFYTT (pin 14) (HIV-1 strain MN); test: pin ELISA, heptapeptide on pin, mAb at 10 µg/ml
[11] = target: heptapeptide HIGPGRA (pin 10) (HIV-1 strain MN); test: pin ELISA, heptapeptide on pin, mAb at 10 µg/ml
[12] = target: heptapeptide IGPGRAF (pin 11) (HIV-1 strain MN); test: pin ELISA, heptapeptide on pin, mAb at 10 µg/ml
[13] = target: heptapeptide PGRAFYT (pin 13) (HIV-1 strain MN); test: pin ELISA, heptapeptide on pin, mAb at 10 µg/ml
[14] = target: heptapeptide RAFYTTK (pin 15) (HIV-1 strain MN); test: pin ELISA, heptapeptide on pin, mAb at 10 µg/ml
[15] = target: 20-mer V3 peptide of HIVSF2 (HIV-1 isolate SF-2); test: ELISA on V3 peptide coated plates, mAb at 10 µg/ml
[16] = target: 22-mer V3 peptide of HXB2 (HIV-1 HXB2 (IIIB)); test: ELISA on V3 peptide coated plates, mAb at 10 µg/ml
[17] = target: 23-mer peptide of the gp120 V3 loop of the MN strain of HIV-1 (HIV-1 strain MN); test: ELISA on V3 peptide coated plates, mAb at 10 µg/ml
[18] = target: V3-CDC4 peptide (HIV-1 isolate CDC4); test: ELISA on V3 peptide coated plates, mAb at 10 µg/ml
[19] = target: V3-NY5 peptide (HIV-1 isolate NY5); test: ELISA on V3 peptide coated plates, mAb at 10 µg/ml
[20] = target: V3-RF peptide (HIV-1 isolate RF); test: ELISA on V3 peptide coated plates, mAb at 10 µg/ml
[21] = target: V3-SC peptide (HIV-1 isolate SC); test: ELISA on V3 peptide coated plates, mAb at 10 µg/ml
[22] = target: V3-WM52 peptide (HIV-1 isolate WM52); test: ELISA on V3 peptide coated plates, mAb at 10 µg/ml
[23] = target: 20-mer V3 peptide of HIVSF2 (HIV-1 isolate SF-2); test: competition ELISA in solution at equilibrium (Friguet method)
[24] = target: 22-mer V3 peptide of HXB2 (HIV-1 HXB2 (IIIB)); test: as above

## human mAb 694-D (antibody)
[1]
  50% neutralization, CEM-SS syncytium-forming assay, IgG concentration: 0.04 µg/mL
  90% neutralization, CEM-SS syncytium-forming assay, IgG concentration: 1.4 µg/mL
[2]
  neutralization endpoint, MT-4 cell killing assay: 0.04 µg/mL
[3]
  neutralization endpoint, MT-4 cell killing assay: > 25 µg/mL
[4]
  neutralization endpoint, MT-4 cell killing assay: > 25 µg/mL
[5]
  neutralization endpoint, MT-4 cell killing assay: 0.04 µg/mL
[6]
  neutralization endpoint, MT-4 cell killing assay: 6.25 µg/mL
[7]
  neutralization endpoint, MT-4 cell killing assay: 3.13 µg/mL
[8]
  neutralization endpoint, MT-4 cell killing assay: 0.78 µg/mL
[9]
  ELISA Reactivity (absorbance at 410 nm) (absorbance at 410 nm): > 2
[10]
  ELISA Reactivity (absorbance at 410 nm) (absorbance at 410 nm): 1.23
[11]
  ELISA Reactivity (absorbance at 410 nm) (absorbance at 410 nm): 0.14
[12]
  ELISA Reactivity (absorbance at 410 nm) (absorbance at 410 nm): 1.37
[13]
  ELISA Reactivity (absorbance at 410 nm) (absorbance at 410 nm): 1.4
[14]
  ELISA Reactivity (absorbance at 410 nm) (absorbance at 410 nm): 0.089
[15]
  minimum antigen concentration giving positive results (µg/ml of V3 peptide used to coat): 0.01
[16]
  minimum antigen concentration giving positive results (µg/ml of V3 peptide used to coat): 0.1
[17]
  minimum antigen concentration giving positive results (µg/ml of V3 peptide used to coat): 0.01
[18]
  minimum antigen concentration giving positive results (µg/ml of V3 peptide used to coat): 1
[19]
  minimum antigen concentration giving positive results (µg/ml of V3 peptide used to coat): 1
[20]
  minimum antigen concentration giving positive results (µg/ml of V3 peptide used to coat): 1
[21]
  minimum antigen concentration giving positive results (µg/ml of V3 peptide used to coat): 0.02
[22]
  minimum antigen concentration giving positive results (µg/ml of V3 peptide used to coat): 0.6
[23]
  Kd: 1800 nM
[24]
  Kd: 12 µM

From US5914109
